# Results: US20180009892A1
# Molecular target: human ROR1 extracellular domain (ECD) protein (human) (UniProt Q01973)
# Assay: ForteBio Octet, blocking of Wnt5a binding to ROR1
# Sequence of human ROR1 extracellular domain (ECD) protein (human) (Q01973 30-406 limits assumed): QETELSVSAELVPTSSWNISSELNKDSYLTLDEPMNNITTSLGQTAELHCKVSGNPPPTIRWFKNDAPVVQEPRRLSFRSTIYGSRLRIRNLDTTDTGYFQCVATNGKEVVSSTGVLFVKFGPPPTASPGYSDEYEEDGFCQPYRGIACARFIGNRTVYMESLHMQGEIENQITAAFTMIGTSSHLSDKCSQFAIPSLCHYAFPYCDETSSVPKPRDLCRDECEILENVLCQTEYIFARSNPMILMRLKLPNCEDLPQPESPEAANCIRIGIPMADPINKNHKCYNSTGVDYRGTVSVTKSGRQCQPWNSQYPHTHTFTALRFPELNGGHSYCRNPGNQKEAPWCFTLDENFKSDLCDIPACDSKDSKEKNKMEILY
substance,measurement,value
mAb Control (antibody),Percentage Blocking,0%
